Columns and labels:
[1] = target: FcγRI recombinant protein, His-tagged (UniProt P12314); assay: SPR (Biacore), His-tagged receptor captured by anti-His antibody on CM5 chip, antibody as analyte
[2] = target: human CD3 on T cells (Jurkat cells; human peripheral blood CD4+ and CD8+ T-cells) (human) (UniProt P07766); assay: flow cytometry on Jurkat cells

Chain of FcγRI recombinant protein, His-tagged (P12314 16-288 limits assumed): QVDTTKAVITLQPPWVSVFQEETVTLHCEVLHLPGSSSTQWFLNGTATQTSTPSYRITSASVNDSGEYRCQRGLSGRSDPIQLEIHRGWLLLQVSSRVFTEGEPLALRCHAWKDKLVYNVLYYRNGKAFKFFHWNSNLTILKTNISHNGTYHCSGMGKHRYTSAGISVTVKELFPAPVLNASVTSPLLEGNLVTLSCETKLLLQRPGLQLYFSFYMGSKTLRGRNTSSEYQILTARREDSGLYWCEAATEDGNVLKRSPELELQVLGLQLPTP

Kd [1] | affinity, FACS (Jurkat) [2] | Substance
14 nM |  | IgG4 isotype control (antibody)
 | 0.27 nM | OKT3-hIgG1 (antibody)
